The data set concerns MS2 coat protein. Briefly: apparent KD of MS2 coat protein; designed switch direction (-1 OFF switch, 1 ON switch): -1; higher = weaker reporter binding. The method in brief: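 Designed RNA switches with common flanks were made on Illumina chips by stalled E. coli RNA polymerase. Titration with SNAP-549-labelled MS2 coat protein doubled from 0.7 or 1.5 nM up to 3 µM. Apparent KD is each design's median over clusters after curve-fitting normalised fluorescence.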

Setting [1] is: Eterna round: R95, input ligand: FMN 200 uM.
[2] abbreviates: Eterna round: R95, input ligand: microRNA oligo, concentration not stated.
The mark [3] stands for this setting: Eterna round: R95, input ligand: none.
[4] abbreviates: input ligand: microRNA oligo, concentration not stated.

On to “GAAGAAGAGAGAAAAGAAAACAUGAGGAUCACCCAUGUGAGAAGAUGAGGGUGUAACAGGCUUUAUGCUCGUCUUAU (puzzle: Sensor v3, turn-off variant 1)”, for which the “apparent KD of MS2 coat protein” value under setting [1] worked out at 33.6 nM, the “apparent KD of MS2 coat protein” value under setting [2] turned out to be 120 nM and the “apparent KD of MS2 coat protein” value under setting [3] was 40.1 nM.

Regarding “GAAGAGACAGGAUAUACAUGAGGAUCACCCAUGUGAGGAGGUUGGAGGCGGAGAAGGUGUAGAAGGGUCAAAGA [JR_Exclu3_Sub022] (puzzle: Exclusion 3)”, the “apparent KD of MS2 coat protein” value is, setting by setting: under setting [1], 41.5 nM; under setting [2], 36 nM; under setting [3], 51.4 nM.

For “GAAGAGACAGGAUAUACAUGAGGAUCACCCAUGUGAGGAUGUUGGAGGCGGAGGAGGUGUAGAAGGGUCAAAGA [JR_Exclu3_Sub020] (puzzle: Exclusion 3)”, under setting [2], the “apparent KD of MS2 coat protein” value was 26.7 nM.

With “GAAGAGACAGGAUAUACAUGAGGAUCACCCAUGUGAGUAUGUUGGAGGCGGAGGAGAUGUAGAAGGGUCAAAGA [JR_Exclu3_Sub018] (puzzle: Exclusion 3)”, the “apparent KD of MS2 coat protein” value was 36.3 nM under setting [1], 23.9 nM under setting [2] and 29.7 nM under setting [3].

For “GAAGUUAGAGGAUAUACAUGAGGAUCACCCAUGUGUGAAGUAAACUUUGUAUGUUUAUGUAGAAGGCUAACUUC [-21.7, -19.9 kcal, 32% A] (Eterna round: R97, puzzle: Exclusion 3)”, the “apparent KD of MS2 coat protein” value is, setting by setting: (input ligand: FMN 200 uM) 94 nM; (input ligand: none) 19.1 nM.

Turning to “GAAUACAGAGGAUAUGCGUAAUAGGUAGUAAGAUAUAUAUGACAUGAGGAUCACCCAUGUAGAAGGCUGAGAUA [EX2 #1] (Eterna round: R97, puzzle: Exclusion 2)”, the “apparent KD of MS2 coat protein” value is, setting by setting: (input ligand: FMN 200 uM) 26.9 nM; (input ligand: none) 30.5 nM.

Consider “GAAUAGGGAGGAUAUCCAAUAUAUGACAUGAGGAUCACCCAUGUUUCCACUCGUACCUCCGGAGAAGGCCCAUAAG [Ex5 #5] (Eterna round: R97, puzzle: Exclusion 5)”, for which the “apparent KD of MS2 coat protein” value is, setting by setting: (input ligand: FMN 200 uM) 22.4 nM; (input ligand: none) 30.6 nM.

Regarding “GACAGCGGAGGAUAUGCCGUAGAUUACAUGAGGAUCACCCAUGUGGGCUGUAAGUAAUAGGCAGAAGGCUGCCGUU [Eternabot (Original) Solution 33] (Eterna round: R97, puzzle: Exclusion 5)”, the “apparent KD of MS2 coat protein” value by setting is: (input ligand: FMN 200 uM) 144 nM; (input ligand: none) 109 nM.

For the sequence “GACAUGAGGAUCACCCAUGUAACCAGGGCAAUUCUCGAAAUGGAGGAUAUGAAUCUUAAUUAGGUUCAGAAGGCCAGAAGGCUA [Eternabot solution 29] (Eterna round: R96, puzzle: Exclusion NG 3)”, the “apparent KD of MS2 coat protein” value by setting is: (input ligand: FMN 200 uM) 784 nM; under setting [4], 194 nM; (input ligand: none) 206 nM.

Consider “GACAUGAGGAUCACCCAUGUAACCUCAUGUAGGAAGGAGAGUAAGGAUAUAUAUGAAGGAAUGAAGUAGAAGGUGCAUAGAGAG [Default title] (Eterna round: R96, puzzle: Exclusion NG 3)”, for which the “apparent KD of MS2 coat protein” value was 539 nM (input ligand: FMN 200 uM), 1350 nM under setting [4] and 854 nM (input ligand: none).

For the sequence “GACAUUUGAGGAUAUGCAGCUAGCUUCGUUUUCAAAUCGAGACAUGAGGAUCACCCAUGUAGAAGGCAAGGUCG [Eternabot (L1) Solution 88] (Eterna round: R97, puzzle: Exclusion 2)”, the “apparent KD of MS2 coat protein” value (input ligand: FMN 200 uM) is 29.4 nM and the “apparent KD of MS2 coat protein” value (input ligand: none) worked out at 31.9 nM.

Turning to “GACCAAUAGGUAGGAUAUCAUUGCGAUUAGCUAUGAGAAGGACCACAUGAGGAUCACCCAUGUCCUCUAAUUAGCCAAUUGGUA [8th something] (Eterna round: R96, puzzle: Exclusion NG 1)”, the “apparent KD of MS2 coat protein” value reads like this: (input ligand: FMN 200 uM) 426 nM; under setting [4], 170 nM; (input ligand: none) 90.9 nM.

For the sequence “GACCAGCUAGGAUAUACAUGAGGAUCACCCAUGUGCAUUAAAGGGCUGGGUGACCCGCGUAGAAGGAGCGGGUC [Ustieded] (Eterna round: R97, puzzle: Exclusion 3)”, the “apparent KD of MS2 coat protein” value by setting is: (input ligand: FMN 200 uM) 13.9 nM; (input ligand: none) 14.5 nM.

For “GACCCAACCGUUAGGAUAUAGUCGACCUACGGCGACUAGAAGGAACAUGAGGAUCACCCAUGUGUGCGCACAAC [Eternabot (Original) Solution 25] (Eterna round: R97, puzzle: Brourd's mod of Exclusion 4)”, the “apparent KD of MS2 coat protein” value by setting is: (input ligand: FMN 200 uM) 190 nM; (input ligand: none) 60.8 nM.

Take “GACCGGACGUGGUCUGGUAACAUGAGGAUCACCCAUGUAGGUCUAAGAACAUGCCUUUUGCACGCUCGUCUUAUAUA [JR_SV3TOV1_Sub063] (puzzle: Sensor v3, turn-off variant 1)”: the “apparent KD of MS2 coat protein” value is, setting by setting: under setting [1], 54.7 nM; under setting [2], 38.2 nM; under setting [3], 63.8 nM.

Regarding “GACCUACAUGAGGAUCACCCAUGUCAGGAUAUGUGGCGGAGUACGAACAGUCCAAGCGACAGAAGGGACAACAG [Eternabot (Original) Solution 24] (Eterna round: R97, puzzle: Exclusion 1)”, the “apparent KD of MS2 coat protein” value (input ligand: FMN 200 uM) came out at 27.8 nM and the “apparent KD of MS2 coat protein” value (input ligand: none) was 25.3 nM.

For the sequence “GACCUAUAGGUAGGAUAUCAUUGCGAUUAGCUAUGAGAAGGACCACAUGAGGAUCACCCAUGUCCUCCAAUUAACCAUAAGGUC [Fiskers ExNg1 - 5] (Eterna round: R96, puzzle: Exclusion NG 1)”, the “apparent KD of MS2 coat protein” value (input ligand: FMN 200 uM) amounted to 98.7 nM, the “apparent KD of MS2 coat protein” value under setting [4] worked out at 34.6 nM and the “apparent KD of MS2 coat protein” value (input ligand: none) was 40.9 nM.

As for “GACCUAUAGGUAGGAUAUCAUUGCGAUUAGCUAUGAGAAGGACCACAUGAGGAUCACCCAUGUCCUCCAAUUAGCCAUUUGGUC [Fiskers ExNg1 - 7] (Eterna round: R96, puzzle: Exclusion NG 1)”, the “apparent KD of MS2 coat protein” value (input ligand: FMN 200 uM) was determined as 196 nM, the “apparent KD of MS2 coat protein” value under setting [4] worked out at 47 nM and the “apparent KD of MS2 coat protein” value (input ligand: none) came out at 58.3 nM.

With “GACCUAUAGGUAGGAUAUCAUUGCGAUUAGCUAUGAGAAGGGCCACAUGAGGAUCACCCAUGUCCUCCAAUUAACCAUAAGGUC [Fiskers ExNg1 - 6] (Eterna round: R96, puzzle: Exclusion NG 1)”, the “apparent KD of MS2 coat protein” value by setting is: (input ligand: FMN 200 uM) 38.5 nM; under setting [4], 26.7 nM; (input ligand: none) 37.3 nM.

In the case of “GACCUGAGGCAAAGCUUUAGGCUUACAUGAGGAUCACCCAUGUAGGAUAUGGUAGGCAAAGCUUACCAGAAGGACAUGGAAAUU [Mat - Exclusion NG 3 - Mod of JL - D25] (Eterna round: R96, puzzle: Exclusion NG 3)”, the “apparent KD of MS2 coat protein” value runs as follows: (input ligand: FMN 200 uM) 646 nM; under setting [4], 98.7 nM; (input ligand: none) 125 nM.

For “GACGUGUGAGGAUAUGCCGUGCCGGUCCGGAAGGUUCGGGUGCAGAAGGCACAUGAGGAUCACCCAUGUGUAAG [Excls4-VI] (puzzle: Exclusion 4)”, the “apparent KD of MS2 coat protein” value under setting [2] is 17.7 nM.

With “GACUGACAUGAGGAUCACCCAUGUAAGGAUAUAGGGAACGUCGUUCCGCAACCCGCGCCUAGAAGGUACAAGGU [EX1 C.11] (Eterna round: R97, puzzle: Exclusion 1)”, the “apparent KD of MS2 coat protein” value is, setting by setting: (input ligand: FMN 200 uM) 18.2 nM; (input ligand: none) 16.1 nM.

Consider “GACUGCCGAGGAUAUACAUGAGGAUCACCCAUGUGCUUCAGCAUUUUUUGAUGCAUGGGUAGAAGGCGGUAGUU [LRO-Excl3-15] (puzzle: Exclusion 3)”, for which the “apparent KD of MS2 coat protein” value under setting [2] was found to be 341 nM.

As for “GACUUCCGAGGAUAUACAUGAGGAUCACCCAUGUGCUUCAGCAUUUUUUGAUGCAUGGGUAGAAGGCGGUAGUU [LRO-Excl3-16] (puzzle: Exclusion 3)”, the “apparent KD of MS2 coat protein” value under setting [2] came to 226 nM.

Regarding “GACUUCUCUGAGGAUAUUGCAUCAUACGAUAAAUAAGAAGGCAGAACAUGAGGAUCACCCAUGUGGGUUUUAAG [Bingo-Bango-33] (Eterna round: R97, puzzle: Exclusion 6)”, the “apparent KD of MS2 coat protein” value (input ligand: FMN 200 uM) is 137 nM and the “apparent KD of MS2 coat protein” value (input ligand: none) stood at 104 nM.

“GACUUGUCAGGAUAUCUUACAUUUGCAUCGUAGUUACCGUUGGAGAAGGGACAUGAGGAUCACCCAUGUUUGGC [tap-tap-tappy24] (Eterna round: R97, puzzle: Exclusion 4)”: the “apparent KD of MS2 coat protein” value runs as follows: (input ligand: FMN 200 uM) 26.6 nM; (input ligand: none) 28.9 nM.

Take “GAGAAACAUGAGGAUCACCCAUGUGAGGAUAUGAGCACGCCGGUGACGGUGAUAAGAAUCAGAAGGCACAAAGG [Mat - Exclusion 1 - JL Mod - D33] (Eterna round: R97, puzzle: Exclusion 1)”: the “apparent KD of MS2 coat protein” value was 422 nM (input ligand: FMN 200 uM) and 67.6 nM (input ligand: none).

As to “GAGAAACAUGAGGAUCACCCAUGUGAGGAUAUGAGCACGCCGGUGACGGUGAUAAGAAUCAGAAGGCACAUUAA [Mat - Exclusion 1 - JL Mod - D34] (Eterna round: R97, puzzle: Exclusion 1)”, the “apparent KD of MS2 coat protein” value is, setting by setting: (input ligand: FMN 200 uM) 95.7 nM; (input ligand: none) 38.8 nM.

Consider “GAGAAACAUGAGGAUCACCCAUGUGAGGAUAUGCGUACGUUGUCCGUAGGCGACGUGCGCAGAAGGCGCAAAAG [Mat - Mod of JL D87] (puzzle: Exclusion 1)”, for which the “apparent KD of MS2 coat protein” value by setting is: under setting [1], 59 nM; under setting [2], 53.5 nM; under setting [3], 96 nM.

With “GAGAAACAUGAGGAUCACCCAUGUGAGGAUAUGCGUACGUUGUCCGUAGGCGACGUGCGCAGAAGGCGCAAAGG [Mat - Mod of JL D86] (puzzle: Exclusion 1)”, the “apparent KD of MS2 coat protein” value under setting [2] was found to be 54.2 nM.

With “GAGAAAUUAUAGGAUAUCGUAAGGAUAAUUUAACGAGAAGGAUGAACAUGAGGAUCACCCAUGUGGUAUCAUGG [JL-ex6-3.12] (puzzle: Exclusion 6)”, the “apparent KD of MS2 coat protein” value under setting [1] worked out at 191 nM, the “apparent KD of MS2 coat protein” value under setting [2] amounted to 184 nM and the “apparent KD of MS2 coat protein” value under setting [3] is 465 nM.

(Values after the supplement of paper PMC9170038.)
